Results: paper PMC8363748, “The conformational stability of pro-apoptotic BAX is dictated by discrete residues of the protein core” (Nature Communications, 2021)

B1: N-His6-GFP-BAX α2–α5 (53–128), C62S/C126S (domain or fragment, human, UniProt Q07812 53-128, looked up)
chain: DASTKKLSESLKRIGDELDSNMELQRMIAAVDTDSPREVFFRVAADMFSDGNFNWGRVVALFYFASKLVLKALSTK
notes: BAX α2–α5 truncate, residues 53–128, human; also called BAX α2–α5 WT; wild-type BAX α2–α5; source: E. coli, purified (Ni-NTA, SEC Superdex S-200); not shown: His6, N-terminal, kept; GFP, N-terminal, kept
B2: GFP-BAX α2–α5 L113A/Y115A/F116A (domain or fragment, human, UniProt Q07812 53-128, looked up)
chain: DASTKKLSESLKRIGDELDSNMELQRMIAAVDTDSPREVFFRVAADMFSDGNFNWGRVVAAFAAASKLVLKALSTK
notes: BAX α2–α5 truncate, residues 53–128, human; also called triple alanine mutant L113A/Y115A/F116A; source: E. coli, purified (Ni-NTA, SEC Superdex S-200); not shown: His6, N-terminal, kept; GFP, N-terminal, kept
B3: GFP-BAX α2–α5 L113A/F116A (domain or fragment, human, UniProt Q07812 53-128, looked up)
chain: DASTKKLSESLKRIGDELDSNMELQRMIAAVDTDSPREVFFRVAADMFSDGNFNWGRVVAAFYAASKLVLKALSTK
notes: BAX α2–α5 truncate, residues 53–128, human; also called double alanine mutant; source: E. coli, purified (Ni-NTA, SEC Superdex S-200); not shown: His6, N-terminal, kept; GFP, N-terminal, kept
B4: GFP-BAX α2–α5 Y115A/F116A (domain or fragment, human, UniProt Q07812 53-128, looked up)
chain: DASTKKLSESLKRIGDELDSNMELQRMIAAVDTDSPREVFFRVAADMFSDGNFNWGRVVALFAAASKLVLKALSTK
notes: as for B3
B5: GFP-BAX α2–α5 L113A/F114A (domain or fragment, human, UniProt Q07812 53-128, looked up)
chain: DASTKKLSESLKRIGDELDSNMELQRMIAAVDTDSPREVFFRVAADMFSDGNFNWGRVVAAAYFASKLVLKALSTK
notes: as for B3
B6: GFP-BAX α2–α5 Y115A (domain or fragment, human, UniProt Q07812 53-128, looked up)
chain: DASTKKLSESLKRIGDELDSNMELQRMIAAVDTDSPREVFFRVAADMFSDGNFNWGRVVALFAFASKLVLKALSTK
notes: BAX α2–α5 truncate, residues 53–128, human; source: E. coli, purified (Ni-NTA, SEC Superdex S-200); not shown: His6, N-terminal, kept; GFP, N-terminal, kept
B7: GFP-BAX α2–α5 F116A (domain or fragment, human, UniProt Q07812 53-128, looked up)
chain: DASTKKLSESLKRIGDELDSNMELQRMIAAVDTDSPREVFFRVAADMFSDGNFNWGRVVALFYAASKLVLKALSTK
notes: as for B6
B8: GFP-BAX α2–α5 L113A/F114A/F116A (domain or fragment, human, UniProt Q07812 53-128, looked up)
chain: DASTKKLSESLKRIGDELDSNMELQRMIAAVDTDSPREVFFRVAADMFSDGNFNWGRVVAAAYAASKLVLKALSTK
notes: BAX α2–α5 truncate, residues 53–128, human; also called triple BAX α2–α5 mutant L113A/F114A/F116A; source: E. coli, purified (Ni-NTA, SEC Superdex S-200); not shown: His6, N-terminal, kept; GFP, N-terminal, kept
B9: GFP-BAX α2–α5 L113A/F114A/Y115A (domain or fragment, human, UniProt Q07812 53-128, looked up)
chain: DASTKKLSESLKRIGDELDSNMELQRMIAAVDTDSPREVFFRVAADMFSDGNFNWGRVVAAAAFASKLVLKALSTK
notes: BAX α2–α5 truncate, residues 53–128, human; also called triple BAX α2–α5 mutant L113A/F114A/Y115A; source: E. coli, purified (Ni-NTA, SEC Superdex S-200); not shown: His6, N-terminal, kept; GFP, N-terminal, kept
B10: GFP-BAX α2–α5 L113A (domain or fragment, human, UniProt Q07812 53-128, looked up)
chain: DASTKKLSESLKRIGDELDSNMELQRMIAAVDTDSPREVFFRVAADMFSDGNFNWGRVVAAFYFASKLVLKALSTK
notes: as for B6
B11: GFP-BAX α2–α5 F114A/Y115A/F116A (domain or fragment, human, UniProt Q07812 53-128, looked up)
chain: DASTKKLSESLKRIGDELDSNMELQRMIAAVDTDSPREVFFRVAADMFSDGNFNWGRVVALAAAASKLVLKALSTK
notes: BAX α2–α5 truncate, residues 53–128, human; also called triple alanine mutant F114A/Y115A/F116A; source: E. coli, purified (Ni-NTA, SEC Superdex S-200); not shown: His6, N-terminal, kept; GFP, N-terminal, kept
B12: GFP-BAX α2–α5 F114A/Y115A (domain or fragment, human, UniProt Q07812 53-128, looked up)
chain: DASTKKLSESLKRIGDELDSNMELQRMIAAVDTDSPREVFFRVAADMFSDGNFNWGRVVALAAFASKLVLKALSTK
notes: as for B3
B13: GFP-BAX α2–α5 L113A/Y115A (domain or fragment, human, UniProt Q07812 53-128, looked up)
chain: DASTKKLSESLKRIGDELDSNMELQRMIAAVDTDSPREVFFRVAADMFSDGNFNWGRVVAAFAFASKLVLKALSTK
notes: as for B3
B14: GFP-BAX α2–α5 F114A/F116A (domain or fragment, human, UniProt Q07812 53-128, looked up)
chain: DASTKKLSESLKRIGDELDSNMELQRMIAAVDTDSPREVFFRVAADMFSDGNFNWGRVVALAYAASKLVLKALSTK
notes: as for B3
B15: GFP-BAX α2–α5 F114A (domain or fragment, human, UniProt Q07812 53-128, looked up)
chain: DASTKKLSESLKRIGDELDSNMELQRMIAAVDTDSPREVFFRVAADMFSDGNFNWGRVVALAYFASKLVLKALSTK
notes: as for B6

Target: the molecule itself
Test: SEC; N-His6-GFP-BAX α2–α5 proteins, Superdex S-200, TBS; the dimer is observed as a GFP-mediated dimer/oligomer of dimers

Binding result, binds:
B1
B2
B3
B4
B5
B6
B7
B8
B9
B10
B11
B12
B13
B14
B15
